B1: Tyrosine-protein kinase JAK2 (Mus musculus), Q62120 (parent)
chain: MGMACLTMTEMEATSTSPVHQNGDIPGSANSVKQIEPVLQVYLYHSLGQAEGEYLKFPSGEYVAEEICVAASKACGITPVYHNMFALMSETERIWYPPNHVFHIDESTRHDILYRIRFYFPHWYCSGSSRTYRYGVSRGAEAPLLDDFVMSYLFAQWRHDFVHGWIKVPVTHETQEECLGMAVLDMMRIAKEKDQTPLAVYNSVSYKTFLPKCVRAKIQDYHILTRKRIRYRFRRFIQQFSQCKATARNLKLKYLINLETLQSAFYTEQFEVKESARGPSGEEIFATIIITGNGGIQWSRGKHKESETLTEQDVQLYCDFPDIIDVSIKQANQECSNESRIVTVHKQDGKVLEIELSSLKEALSFVSLIDGYYRLTADAHHYLCKEVAPPAVLENIHSNCHGPISMDFAISKLKKAGNQTGLYVLRCSPKDFNKYFLTFAVERENVIEYKHCLITKNENGEYNLSGTKRNFSNLKDLLNCYQMETVRSDSIIFQFTKCCPPKPKDKSNLLVFRTNGISDVQISPTLQRHNNVNQMVFHKIRNEDLIFNESLGQGTFTKIFKGVRREVGDYGQLHKTEVLLKVLDKAHRNYSESFFEAASMMSQLSHKHLVLNYGVCVCGEENILVQEFVKFGSLDTYLKKNKNSINILWKLGVAKQLAWAMHFLEEKSLIHGNVCAKNILLIREEDRRTGNPPFIKLSDPGISITVLPKDILQERIPWVPPECIENPKNLNLATDKWSFGTTLWEICSGGDKPLSALDSQRKLQFYEDKHQLPAPKWTELANLINNCMDYEPDFRPAFRAVIRDLNSLFTPDYELLTENDMLPNMRIGALGFSGAFEDRDPTQFEERHLKFLQQLGKGNFGSVEMCRYDPLQDNTGEVVAVKKLQHSTEEHLRDFEREIEILKSLQHDNIVKYKGVCYSAGRRNLRLIMEYLPYGSLRDYLQKHKERIDHKKLLQYTSQICKGMEYLGTKRYIHRDLATRNILVENENRVKIGDFGLTKVLPQDKEYYKVKEPGESPIFWYAPESLTESKFSVASDVWSFGVVLYELFTYIEKSKSPPVEFMRMIGNDKQGQMIVFHLIELLKSNGRLPRPEGCPDEIYVIMTECWNNNVSQRPSFRDLSLRVDQIRDSIAA
partner: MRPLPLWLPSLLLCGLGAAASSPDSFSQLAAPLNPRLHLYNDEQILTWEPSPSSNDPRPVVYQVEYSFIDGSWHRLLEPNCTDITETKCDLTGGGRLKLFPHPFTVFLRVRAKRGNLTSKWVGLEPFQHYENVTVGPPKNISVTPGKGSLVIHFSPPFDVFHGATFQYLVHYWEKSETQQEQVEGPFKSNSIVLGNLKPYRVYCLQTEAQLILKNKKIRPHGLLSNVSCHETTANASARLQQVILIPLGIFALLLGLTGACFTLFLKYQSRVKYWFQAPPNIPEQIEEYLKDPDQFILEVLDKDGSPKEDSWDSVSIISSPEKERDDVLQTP
B2: Tyrosine-protein kinase JAK2 (Mus musculus), Q62120 (parent)
chain: B1 chain
partner: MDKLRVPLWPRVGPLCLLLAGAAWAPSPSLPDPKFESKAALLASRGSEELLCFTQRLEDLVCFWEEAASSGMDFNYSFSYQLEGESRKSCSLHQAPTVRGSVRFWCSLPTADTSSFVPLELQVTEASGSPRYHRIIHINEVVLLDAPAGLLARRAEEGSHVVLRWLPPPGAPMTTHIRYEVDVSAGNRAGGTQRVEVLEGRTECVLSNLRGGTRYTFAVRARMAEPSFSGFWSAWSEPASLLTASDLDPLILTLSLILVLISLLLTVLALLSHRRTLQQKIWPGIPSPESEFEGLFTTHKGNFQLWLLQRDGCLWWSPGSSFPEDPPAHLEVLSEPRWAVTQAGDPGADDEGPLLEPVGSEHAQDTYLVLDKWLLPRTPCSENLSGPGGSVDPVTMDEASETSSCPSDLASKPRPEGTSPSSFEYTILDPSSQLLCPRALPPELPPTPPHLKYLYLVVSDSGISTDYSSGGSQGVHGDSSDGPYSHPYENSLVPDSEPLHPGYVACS

Variants of: B1
Conditions: with Ifngr2, Q63953

effect of a mutation on the interaction	Variant
decreasing interaction	Y119E
decreasing interaction	Y1007F

Variants of: B2
Conditions: with epor_mouse Epor

effect of a mutation on the interaction	Variant
disrupting interaction	Y119E
decreasing interaction	Y1007F

— IntAct's records for PubMed 17024180
